# Data reported in patent US20220089758A1 (REVMAB BIOSCIENCES USA, published 2022).
# Residue numbers refer to the chain shown, from its start.
# B1: APX005M (antibody, V domains shown)
# VH: QVQLVESGGGVVQPGRSLRLSCAASGFSFSSTYVCWVRQAPGKGLEWIACIYTGDGTNYSASWAKGRFTISKDSSKNTVYLQMNSLRAEDTAVYFCARPDITYGFAINFWGPGTLVTVSS
# VL: DIQMTQSPSSLSASVGDRVTIKCQASQSISSRLAWYQQKPGKPPKLLIYRASTLASGVPSRFSGSGSGTDFTLTISSLQPEDVATYYCQCTGYGISWPIGGGTKVEIK
# B2: Antibody clone 6 (antibody, V domains shown)
# VH: QSLEESGGRLVTPGTPLTLTCTASGFDFSRYHMCWVRQAPGKGLEWIGIIYVSDNTYYATWAKGRFTISRTSTTVDLKITSPTTEDTATYFCVRVGSFWSSKLWGPGTLVTVSS
# VL: DVVMTQTPASVSEPVGGTVTINCQASENIYSSLAWYQQKPGQPPKLLIYEASNLESGVSSRFSGSGSGTEFTLTISDLECADAATYYCQSTYFGNSYVFAFGGGTEVVVK
# notes: Rabbit monoclonal antibody; also called 6H2/6L2
# B3: Antibody clone 5 (antibody, V domains shown)
# VH: QSVKESGGGLFKPTDTLTLTCTVSGFSLSSNAISWVRQAPGKGLEWIGIIYASGDTYYASWAKGRFTISKTSSTTVDLKMTSLTTEGTATYFCARGYTTLYFWGPGTLVTVSS
# VL: QIVMTQTPASVSAAVGGTVTIKCQASESISTRLAWYQQKPGQPPKLLIYSASTLPSGVPSRFSGSGSGTDFTLTISGVQCDDAATYYCQGGYSSGAGTAFGGGTEVVVK
# notes: Rabbit monoclonal antibody; also called 5H2/5L2
# B4: Antibody clone 5-z (antibody, V domains shown)
# VH: EVQLVESGGGLVQPGGSLRLSCAASGFSLSSNAISWVRQAPGKGLEWVGIIYASGDTYYASWAKGRFTISRDNSKNTLYLQMNSLRAEDTAVYYCARGYTTLYFWGQGTLVTVSS
# VL: DIQMTQSPSSVSASVGDRVTITCQASESISTRLAWYQQKPGKAPKLLIYSASTLPSGVPSRFSGSGSGTDFTLTISSLQPEDFATYYCQGGYSSGAGTAFGGGTKVEIK
# notes: Humanized antibody based on clone 5; also called 5H2-z/5L2-z
# B5: Antibody clone 6-z (antibody, V domains shown)
# VH: EVQLVESGGGLVQPGGSLRLSCAASGFDFSRYHMSWVRQAPGKGLEWVGIIYVSDNTYYATWAKGRFTISRDNSKNTLYLQMNSLRAEDTAVYYCVRVGSFWSSKLWGQGTLVTVSS
# VL: DIQMTQSPSTLSASVGDRVTITCQASENIYSSLAWYQQKPGKAPKLLIYEASNLESGVPSRFSGSGSGTEFTLTISSLQPDDFATYYCQSTYFGNSYVFAFGGGTKVEIK
# notes: Humanized antibody based on clone 6; also called 6H2-z/6L2-z
# B6: Antibody clone 166 (antibody, V domains shown)
# VH: B2 VH with F28L, C34N, N55D, T56S, T60S, R70K, T74A, V93A, F98V
# VL: B2 VL with N22K, S31N, S32N, E50R, N53T, S59P, S63K, N95G
# notes: Rabbit monoclonal antibody; also called 166H2/166L1
# B7: Antibody clone 151 (antibody, V domains shown)
# VH: QSVEESGGRLVTPGTPLTLTCTVSGFSLSSNAISWVRQAPGKGLEWIGVIDAGGSTYFASWAKGLFTISKTSSTTVDLQMTSLTTEDTATYFCARGWSRHDFWGPGTLVTVSS
# VL: DVVMTQTPASVSEPVGGTVTIKCQASQSISNILAWYQQKPGQPPRLLIYSASTLASGVSSRFKASGSGTEFTLTISDLECADAATYYCQGYDSTVGVGAFGGGTEVVVK
# notes: Rabbit monoclonal antibody; also called 151H1/151L1
# B8: Antibody clone 233 (antibody, V domains shown)
# VH: QEQLVESGGGLVQPEGSLTLTCTASGFSFSYYSWACWVRQAPGKGLEWIACIDGGGSRATYYASWAKGRFTISTTSSTTVTLQMTSLTAADTATYFCSRSDYNGYISYFDLWGPGTLVTVSS
# VL: AFELTQTPSSVEAAVGGTVTINCQASQSIRSDLAWYQQKPGQPPKLLIYKASTLASGVPSRFRGSGSGTEYTLTISDLECADAATYYCQSYYHSSSTAFGGGTEVVVK
# notes: Rabbit monoclonal antibody; also called 233H1/233L1
# Target: T1, CD40 protein displayed on cell surface (UniProt P25942 21-277, limits assumed)
# Assay: cell-based or functional assay
# T1 sequence (P25942 21-277 limits assumed): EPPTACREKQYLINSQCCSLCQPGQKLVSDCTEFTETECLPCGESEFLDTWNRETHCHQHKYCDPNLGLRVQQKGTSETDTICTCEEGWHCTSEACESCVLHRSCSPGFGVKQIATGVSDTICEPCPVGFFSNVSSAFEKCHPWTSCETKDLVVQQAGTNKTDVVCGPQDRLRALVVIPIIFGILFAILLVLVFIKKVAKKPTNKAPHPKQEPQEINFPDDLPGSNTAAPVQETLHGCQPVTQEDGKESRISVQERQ
Binder,"EC50 in activating B cell assessed by CD80 expression (CD19+ cells, flow cytometry) [nM]","EC50 in activating B cell assessed by CD86 expression (CD19+ cells, flow cytometry) [pM]",EC50 in activating MoDC assessed by CD86 expression [nM],EC50 in activating monocyte derived dendritic cell (MoDC) assessed by CD80 expression [nM],"EC50 of CD40 activation, SEAP activity (Quanti-Blue, absorbance at 650 nm) of HEKBlue CD40L reporter cells [nM]"
B1,0.41,21,1.7,1.6,10
B2,0.17,140,22,29,8
B3,0.0027,1.5,1.3,0.74,0.34

# Target: T1, CD40 protein displayed on cell surface
# Assay: binding to CD40-expressing cell; method not described
row,Binder,binding result
1,B4,binds
2,B5,binds

# Target: T2, recombinant CD40 ECD-Fc fusion protein (UniProt P25942 21-193, limits assumed, biotinylated (site not stated))
# T2 construct: extracellular domain; also called biotinylated CD40 ECD-Fc; not shown: Fc
# Assay: BLI (Octet), biotinylated CD40 ECD-Fc captured on streptavidin probe, antibody in solution
# Experimental: Binding affinity to recombinant CD40 ECD-Fc fusion protein were determined using Bio-Layer Interferometry (BLI) on Octet system. Briefly, biotinylated CD40 ECD-Fc were captured by streptavidin probe and the antibody association/dissociation were measured with light interferometry in realtime. KD were then calculated by Kₒₙ and Koff.
# T2 sequence (P25942 21-193 limits assumed): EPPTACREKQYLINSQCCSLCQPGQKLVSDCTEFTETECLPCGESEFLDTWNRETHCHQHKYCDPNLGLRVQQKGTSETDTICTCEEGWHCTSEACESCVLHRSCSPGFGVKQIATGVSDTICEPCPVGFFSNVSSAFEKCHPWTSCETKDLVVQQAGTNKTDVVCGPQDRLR
row,Binder,Kd [nM]
1,B1,0.041
2,B2,0.377
3,B6,0.42
4,B7,0.084
5,B8,0.012
6,B3,0.00604

# Target: T1, CD40 protein displayed on cell surface
# Assay: flow cytometry on HEKBlue CD40L reporter cells, fluorescent secondary antibody, median fluorescence intensity
# Excerpt: (§1) HEKBlue CD40L reporter cells were harvested and stained with anti-CD40 and fluorescent secondary antibodies. Antibodies binding are shown in median fluorescence intensity.
row,Binder,EC50 [nM]
1,B1,0.82
2,B2,0.63
3,B3,0.36

# Target: T1, CD40 protein displayed on cell surface
# Assay: flow cytometry on HEKBlue CD40L reporter cells, fluorescent secondary antibody, median fluorescence
# Excerpt: as §1
row,Binder,EC50 [µg/mL]
1,B1,0.123
2,B2,0.0945
3,B3,0.0541
